US20250188176A1 (INVETX, published 2025)
Positions count from the first letter of the chain named.

T1: Extracellular domain (ECD) of the canine IL-4 receptor alpha-V5 epitope-AviTag-His Tag (canine)
T1 construct: monomeric form isolated by size exclusion; also called canine IL-4RA-V5-Avi-His; canine IL-4RA
T1 chain: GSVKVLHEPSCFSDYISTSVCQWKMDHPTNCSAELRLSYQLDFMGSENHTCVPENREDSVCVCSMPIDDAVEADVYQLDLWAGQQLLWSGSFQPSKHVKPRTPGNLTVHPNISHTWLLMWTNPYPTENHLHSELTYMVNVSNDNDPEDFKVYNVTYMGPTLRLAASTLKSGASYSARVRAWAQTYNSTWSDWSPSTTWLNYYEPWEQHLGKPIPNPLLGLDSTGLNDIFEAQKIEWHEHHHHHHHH

B1: TB640_005 Fab-SASA VH-K103I (Fab, V domains shown)
VH: EVQLVESGGDLVKPGGSLRLSCVASGFTFRDYAMTWVRQAPGKGLQWVSLISGSGGKTYYADAVKGRFTISRDNAKNTLYLQMNSLRAEDTAVYYCAVDRLTITIRPQYYGLWVWGQGTLVTVSS
VL: DIVMTQTPLSLSVSPGETASISCRSSQSLLYSIGYNYLDWYLQKPGQSPQGLIYLGSKRASGVPDRFSGSGSGTDFTLRISRVEANDTGVYYCMQGLQSPLTFGQGTKLEIKR
notes: not shown: SASA tag then His-tag
B2: TB640_005 Fab-SASA VH-K103R (Fab, V domains shown)
VH: B1 VH with I103R
VL: B1 VL
notes: as for B1
B3: TB640_005 Fab-SASA VH-L50F (Fab, V domains shown)
VH: B1 VH with L50F, I103K
VL: B1 VL
notes: as for B1
B4: TB640_005 Fab-SASA VH-L50M (Fab, V domains shown)
VH: B1 VH with L50M, I103K
VL: B1 VL
notes: as for B1
B5: TB640_005 Fab-SASA VH-L101K (Fab, V domains shown)
VH: B1 VH with L101K, I103K
VL: B1 VL
notes: as for B1
B6: TB640_005 Fab-SASA VH-L101M (Fab, V domains shown)
VH: B1 VH with L101M, I103K
VL: B1 VL
notes: as for B1
B7: TB640_005 Fab-SASA VH-L112M (Fab, V domains shown)
VH: B1 VH with I103K, L112M
VL: B1 VL
notes: as for B1
B8: TB640_005 Fab-SASA VH-S52N (Fab, V domains shown)
VH: B1 VH with S52N, I103K
VL: B1 VL
notes: as for B1
B9: TB640_005 Fab-SASA VH-T28N (Fab, V domains shown)
VH: B1 VH with T28N, I103K
VL: B1 VL
notes: as for B1
B10: TB640_005 Fab-SASA VH-T28P (Fab, V domains shown)
VH: B1 VH with T28P, I103K
VL: B1 VL
notes: as for B1
B11: TB640_005 Fab-SASA VH-V114G (Fab, V domains shown)
VH: B1 VH with I103K, V114G
VL: B1 VL
notes: as for B1
B12: TB640_005 Fab-SASA VH-V114H (Fab, V domains shown)
VH: B1 VH with I103K, V114H
VL: B1 VL
notes: as for B1
B13: TB640_005 Fab-SASA VH-V114K (Fab, V domains shown)
VH: B1 VH with I103K, V114K
VL: B1 VL
notes: as for B1
B14: TB640_005 Fab-SASA VH-V114Q (Fab, V domains shown)
VH: B1 VH with I103K, V114Q
VL: B1 VL
notes: as for B1
B15: TB640_005 Fab-SASA VH-Y110L (Fab, V domains shown)
VH: B1 VH with I103K, Y110L
VL: B1 VL
notes: as for B1
B16: TB640_005 Fab-SASA VH-Y110R (Fab, V domains shown)
VH: B1 VH with I103K, Y110R
VL: B1 VL
notes: as for B1
B17: TB640_005 Fab-SASA VL-A60L (Fab, V domains shown)
VH: B1 VH with I103K
VL: B1 VL with A60L
notes: as for B1
B18: TB640_005 Fab-SASA VL-A60M (Fab, V domains shown)
VH: B1 VH with I103K
VL: B1 VL with A60M
notes: as for B1
B19: TB640_005 Fab-SASA VL-G96P (Fab, V domains shown)
VH: B1 VH with I103K
VL: B1 VL with G96P
notes: as for B1
B20: TB640_005 Fab-SASA VL-I33A (Fab, V domains shown)
VH: B1 VH with I103K
VL: B1 VL with I33A
notes: as for B1
B21: TB640_005 Fab-SASA VL-I33P (Fab, V domains shown)
VH: B1 VH with I103K
VL: B1 VL with I33P
notes: as for B1
B22: TB640_005 Fab-SASA VL-I33V (Fab, V domains shown)
VH: B1 VH with I103K
VL: B1 VL with I33V
notes: as for B1
B23: TB640_005 Fab-SASA VL-L30A (Fab, V domains shown)
VH: B1 VH with I103K
VL: B1 VL with L30A
notes: as for B1
B24: TB640_005 Fab-SASA VL-L30T (Fab, V domains shown)
VH: B1 VH with I103K
VL: B1 VL with L30T
notes: as for B1
B25: TB640_005 Fab-SASA VL-L55M (Fab, V domains shown)
VH: B1 VH with I103K
VL: B1 VL with L55M
notes: as for B1
B26: TB640_005 Fab-SASA VL-L101N (Fab, V domains shown)
VH: B1 VH with I103K
VL: B1 VL with L101N
notes: as for B1
B27: TB640_005 Fab-SASA VL-Q27E (Fab, V domains shown)
VH: B1 VH with I103K
VL: B1 VL with Q27E
notes: as for B1
B28: TB640_005 Fab-SASA VL-Q27H (Fab, V domains shown)
VH: B1 VH with I103K
VL: B1 VL with Q27H
notes: as for B1
B29: TB640_005 Fab-SASA VL-Q27L (Fab, V domains shown)
VH: B1 VH with I103K
VL: B1 VL with Q27L
notes: as for B1
B30: TB640_005 Fab-SASA VL-Q27T (Fab, V domains shown)
VH: B1 VH with I103K
VL: B1 VL with Q27T
notes: as for B1
B31: TB640_005 Fab-SASA VL-Q95N (Fab, V domains shown)
VH: B1 VH with I103K
VL: B1 VL with Q95N
notes: as for B1
B32: TB640_005 Fab-SASA VL-S57H (Fab, V domains shown)
VH: B1 VH with I103K
VL: B1 VL with S57H
notes: as for B1
B33: TB640_005 Fab-SASA VL-S57N (Fab, V domains shown)
VH: B1 VH with I103K
VL: B1 VL with S57N
notes: as for B1

Target: T1, Extracellular domain (ECD) of the …
Test: SPR, Fab-SASA captured on BSA;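 note: biacore T200 SPR, Fab-SASA variants from E. coli conditioned medium captured on BSA-coated CM5 chip, canine IL-4RA injected 120 s then 420 s dissociation, 1:1 model fit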
Protocol: Forty-four PML clones were selected from each library for expression in E. coli in 96 deep-well plates by inoculating into 2YT medium and inducing with 0.2 mM IPTG overnight at room temperature. The Fab secreted in the medium was analyzed for binding activity by completing an ELISA. […] The 39 unique clones were confirmed by an off-rate screening assay in an SPR assay performed on a Biacore T200. For the SPR analyses, bovine serum albumin (BSA) was immobilized to CM5 sensor chip. The sensor chip surface was activated with 50 mmol/L H-Hydroxysuccinimide and 200 mmol/L 1-ethyl-3-(3-dimethylaminopropyl) carbodiimide hydrochloride for 420 s. Afterwards, BSA diluted in 10 mM sodium acetate, pH 4.5 was injected. After the amine coupling reaction, the remaining active coupling sites on the chip surface were blocked with 1 mM ethanolamine hydrochloride. The selected Fab-SASA variants in conditioned medium were captured on the BSA-coated chips. The running buffer was HBS-EP (10 mM HEPES 500 mM NaCl, 3 mM EDTA, 0.05% Tween 20, pH 7.4). After equilibration, canine IL-4RA was injected for 120 seconds (association phase) followed by the injection of running buffer for 420 sec (dissociation phase). The off-rates of the Fab-SASA clones were obtained from fitting the experimental data locally to a 1:1 interaction model using the Biacore T200 evaluation software.

Binder | Kd [nM] | Ratio WT-kd/clone-kd | koff [s⁻¹] | kon [M⁻¹ s⁻¹]
B1 | 18.6 | 0.99 | 0.000967 | 51900
B2 | 7.13 | 1.5 | 0.000636 | 89200
B3 | 15 | 0.49 | 0.00193 | 128000
B4 | 8.5 | 0.79 | 0.0012 | 141000
B5 | 7.1 | 1.53 | 0.000623 | 87800
B6 | 7.73 | 1.34 | 0.000713 | 92300
B7 | 13.7 | 1.97 | 0.000483 | 35300
B8 | 1.83 | 7.88 | 0.000112 | 66200
B9 | 11.3 | 1.22 | 0.00078 | 69200
B10 | 8.95 | 1.21 | 0.000786 | 87800
B11 | 3.5 | 1.47 | 0.000647 | 185000
B12 | 5.47 | 1.62 | 0.000589 | 108000
B13 | 5.97 | 1.33 | 0.000717 | 120000
B14 | 7.16 | 1.41 | 0.000674 | 94100
B15 | 6.65 | 0.71 | 0.00135 | 202000
B16 | 9.6 | 0.62 | 0.00153 | 159000
B17 | 5.41 | 0.98 | 0.000974 | 180000

Binder | Kd [nM] | Ratio WT-kd/clone-kd | koff [s⁻¹] | kon [M⁻¹ s⁻¹]
B18 | 4.52 | 1.12 | 0.00085 | 188000
B19 | 3.27 | 2.66 | 0.000358 | 109000
B20 | 20.1 | 0.62 | 0.00153 | 75900
B21 | 12.5 | 0.7 | 0.00137 | 109000
B22 | 12.7 | 0.94 | 0.00101 | 79800
B23 | 27.3 | 0.51 | 0.00187 | 68600
B24 | 11.8 | 1.54 | 0.000618 | 52200
B25 | 7.97 | 1.42 | 0.000669 | 83900
B26 | 9.76 | 0.3 | 0.00321 | 328000
B27 | 13.4 | 1.09 | 0.000873 | 65300
B28 | 14.9 | 0.97 | 0.000979 | 65700
B29 | 15.5 | 0.96 | 0.000996 | 64200
B30 | 15.9 | 0.86 | 0.00111 | 69700
B31 | 4.15 | 1.99 | 0.00048 | 116000
B32 | 8.2 | 1.41 | 0.000677 | 82600
B33 | 8.8 | 1.32 | 0.00072 | 81800
